Molecular target: HEV-ORF2 mutant lacking all three KFERQ-like motifs (ORF2ΔCMA) (hepatitis E virus genotype 3 (HEV-3), KernowC1-p6 strain)
Experiment: co-IP; HEK-293T transfected with plasmids for HSC70 and GRP75 together with WT ORF2 or ORF2ΔCMA for 48 h, NP-40 lysis, IP with Mab-2G8, blots for HSC70 and GRP75

Substance “GRP75 expressed from plasmid in HEK-293T cells together with HSC70 and ORF2 (tag not stated) (from UniProt P38646 47-679) (natural protein)” has a decrease of co-precipitated GRP75 against wild-type ORF2 of 50%.

Reference: article PMC12817929
